Data from patent publication US9081020B2, “Mutant proteins and methods for selecting them” (Heptares Therapeutics Limited, priority 2008, dated 2015).
Changes are numbered by the printed parent chain. Numbers in names are those of the source. Where “and” joins values, the source holds several entries; their conditions need not be identical. Equal entries are not always repeated. Where two headings read alike, the source gives them in different places.

B1: L65A: M1 mAChR mutant L65A (TM2); background and internal control in Example 3 (protein, UniProt P11229 1-460, looked up, variant L65A)
Muscarinic acetylcholine …: MNTSAPPAVSPNITVLAPGKGPWQVAFIGITTGLLSLATVTGNLLVLISFKVNTELKTVNNYFLASLACADLIIGTFSMNLYTTYLLMGHWALGTLACDLWLALDYVASNASVMNLLLISFDRYFSVTRPLSYRAKRTPRRAALMIGLAWLVSFVLWAPAILFWQYLVGERTVLAGQCYIQFLSQPIITFGTAMAAFYLPVTVMCTLYWRIYRETENRARELAALQGSETPGKGGGSSSSSERSQPGAEGSPETPPGRCCRCCRAPRLLQAYSWKEEEEEDEGSMESLTSSEGEEPGSEVVIKMPMVDPEAQAPTKQPPRSSPNTVKRPTKKGRDRAGKGQKPRGKEQLAKRKTFSLVKEKKAARTLSAILLAFILTWTPYNIMVLVSTFCKDCVPETLWELGYWLCYVNSTINPMCYALCNKAFRDTFRLLLLCRWDKRRWRKIPKRPGSVHRTPSRQC
B2: L65A/C205A: M1 mAChR double mutant, Ala mutation on L65A background (protein, UniProt P11229 1-460, looked up, variant L65A C205A)
Muscarinic acetylcholine …: B1 Muscarinic acetylcholine … with C205A
B3: L65F: M1 mAChR mutant L65F, homologous to M4 mAChR (protein)
chain: B1 Muscarinic acetylcholine … with A65F
B4: L65A/T202A: M1 mAChR double mutant, Ala mutation on L65A background (protein, UniProt P11229 1-460, looked up, variant L65A T202A)
Muscarinic acetylcholine …: B1 Muscarinic acetylcholine … with T202A
B5: L65A/Y82A: M1 mAChR double mutant, Ala mutation on L65A background (protein, UniProt P11229 1-460, looked up, variant L65A Y82A)
Muscarinic acetylcholine …: B1 Muscarinic acetylcholine … with Y82A
B6: L65A/W101A: M1 mAChR double mutant, W101A on L65A background (protein, UniProt P11229 1-460, looked up, variant L65A W101A)
Muscarinic acetylcholine …: B1 Muscarinic acetylcholine … with W101A
B7: L65A/L144A: M1 mAChR double mutant, Ala mutation on L65A background (protein, UniProt P11229 1-460, looked up, variant L65A L144A)
Muscarinic acetylcholine …: B1 Muscarinic acetylcholine … with L144A
B8: L65A/L402A: M1 mAChR double mutant, Ala mutation on L65A background (protein, UniProt P11229 1-460, looked up, variant L65A L402A)
Muscarinic acetylcholine …: B1 Muscarinic acetylcholine … with L402A
B9: L65A/Y208A: M1 mAChR double mutant, Ala mutation on L65A background (protein, UniProt P11229 1-460, looked up, variant L65A Y208A)
Muscarinic acetylcholine …: B1 Muscarinic acetylcholine … with Y208A
B10: L65V: M1 mAChR mutant L65V selected from random mutagenesis screen (protein)
chain: B1 Muscarinic acetylcholine … with A65V

Tests used:
M1 mAChR [1] = assay: thermal stability (Tm) of partially purified [3H]NMS-labelled receptors in 0.1% dodecyl-β-maltoside; type: physicochemical, rat; conditions: 0.1% DDM; for Tm (0.1% DDM): incubation time 30 min, mean±range/SEM; for thermal stability (Tm) relative to L65A, in words: partially purified mutants
Method: For measurements of thermal melting temperature (Tm), [3H]NMS-labelled receptors were partially purified by immobilized metal ion affinity chromatography from cultures grown from single clones expressed in E. Coli BL21 cells, essentially as described in Hulme and Curtis, 1998 (21). Tm measurements were carried out after gel-filtration of partially purified receptors into 50 mM sodium phosphate, 5 mM β-mercaptoethanol and 0.1% dodecyl-β-maltoside (DDM), using an incubation time of 30 min. Values were tabulated as mean±range/SEM of 2 or more independent measurements (Table 3).

M1 mAChR [2] = type: physicochemical; conditions: for % 3H-NMS retained BOG / % loss/wt / mean % retained: 0.82% BOG; for % 3H-NMS retained BOG / % loss/wt / mean % retained / Stability (βOG in-situ) % L65A control: 4° C., 3 h; for % 3H-NMS retained BOG: whole E. coli BL21 cells, single culture; for % loss/wt: % loss relative to wild-type control; for mean % retained: mean of the cultures; for Stability (βOG in-situ) % L65A control / in-situ stability relative to L65A, in words: 0.82% β-octyl glucoside; for Stability (βOG in-situ) % L65A control: % loss(control)/% loss(mutant), mean±SEM of 3; for in-situ stability relative to L65A, in words: L65A background
Method: (§1) This concentration was determined by analysing wild-type M1 mAChRs expressed in the inner cell membranes of intact E. Coli strain BL21 cells. The cells were pre-labelled with the radiolabelled antagonist 3H—N-methyl scopolamine and resuspended to a pre-determined cell density (Absorbance at 600 nm=2.0) in a chosen buffer (in this case 50 mM sodium phosphate, 1 mM EDTA, pH 7.5). […] The wild-type M1 mAChRs were titrated by the addition of increasing concentrations of beta octyl glucoside dissolved in the same buffer for different times (e.g. 1 h, 2 h, 3 h, 5 h, 15 h) and at different temperatures (e.g. 4° C., 15° C.). The loss of specifically-bound radioligand was then measured after recovering the cells by centrifugation (15000×g, 15 min.). In the example, the centrifugation step was performed on duplicate 1 ml aliquots of the cells. The experiment was repeated 3 times. […] It will be appreciated that the cell density, detergent concentration and other parameters of the assay may be varied to adjust the loss of activity as appropriate.
(§2) (a) A state of in-situ destabilisation of a particular membrane protein in a particular cell membrane as a result of the addition of a particular concentration of a particular detergent, can be defined by the loss of the characteristic specific ligand binding activity of the membrane protein for a particular ligand of interest in the presence of a defined concentration of a particular detergent molecule or other solubilising agent.
(§3) A preferred version of the assay is destabilisation of a membrane protein-ligand complex in a detergent-enriched membrane. The membrane protein, either in a membrane preparation, or in intact cells in-vivo or ex-vivo, is pre-incubated with a labelled version of the ligand, the label, for instance, being a radioactive label, or a fluorescent label, and the binding step preferably being allowed to proceed to equilibrium, defined as the achievement of a time-invariant level of binding. To define membrane protein-independent, or non-specific, binding the binding step is performed with the addition of a second non-labelled ligand, called the competing ligand, having an appropriate membrane protein-specific pharmacology, at a concentration sufficient fully to occupy the binding sites of the membrane protein and thereby exclude the binding of the labelled ligand. The difference between the binding of the labelled ligand in the absence and presence of the competing ligand is defined as the specific binding of the labelled ligand. Measurement of binding requires a suitable method for separating and measuring bound ligand. Characteristically, this involves centrifugation of intact cells or membranes for a time and at a centrifugal force adequate to pellet them (for instance, 15000×g for 15 min in the case of E. coli cells, or 100,000×g for plasma membrane preparations), or filtration of a membrane suspension e.g. through a suitable filter paper such as glass fibre paper e.g. GF-B or GF-C followed by counting of radioactivity. Alternatively, it might involve the measurement of an optical signal such as enhancement of fluorescence emission in the case of fluorescent ligands.
(§4) To perform the in-situ destabilisation assay, a pre-determined concentration of the detergent or other destabilising agent of choice is mixed with a membrane or cell suspension containing the pre-labelled membrane protein in an appropriate buffer composition at a particular temperature and for a particular time, determined as described below.

M1 mAChR [3] = molecular target: T1, M1 mAChR (Rattus norvegicus, UniProt P08482, DEL225-353/L65A); type: physicochemical; conditions: after in-situ destabilisation in BOG or DDM
T1 construct: (His)9QGG (C); expressed in transfected cells; host or cells: E. coli BL21 (whole cells)
T1 sequence (P08482 with tags, fused parts or gaps L65A/DEL225-353): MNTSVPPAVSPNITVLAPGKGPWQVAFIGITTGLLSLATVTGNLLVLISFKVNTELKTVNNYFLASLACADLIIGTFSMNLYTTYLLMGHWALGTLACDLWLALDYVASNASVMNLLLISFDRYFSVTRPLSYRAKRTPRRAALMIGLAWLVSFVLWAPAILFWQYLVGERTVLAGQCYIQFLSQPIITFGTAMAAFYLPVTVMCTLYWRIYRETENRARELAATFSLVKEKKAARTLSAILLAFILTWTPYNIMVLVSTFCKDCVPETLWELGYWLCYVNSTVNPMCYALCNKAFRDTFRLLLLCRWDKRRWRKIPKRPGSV
Method: as §1, §2, §3, §4

Row | Molecule | Tm (0.1% DDM) (M1 mAChR [1]) | Stability (βOG in-situ) % L65A control (M1 mAChR [2]) | thermal stability (Tm) relative to L65A, in words (M1 mAChR [1]) | further results
1 | B1 | 29.3 ± 0.4 °C | 100 % L65A control |  | % 3H-NMS retained BOG (M1 mAChR [2]; listed as L65A 1): 83% and 79%; % 3H-NMS retained BOG (M1 mAChR [2]; listed as L65 A 2): 86%; % 3H-NMS retained BOG (M1 mAChR [2]; listed as L65A 2): 79%; % loss/wt (M1 mAChR [2]; listed as L65A 1): 0.29 and 0.4; mean % retained (M1 mAChR [2]; listed as L65A 1): 84.5% and 79%; enhanced stability relative to wild-type (retention of bound 3H-NMS) (M1 mAChR [3]): 2 fold
2 | B2 | 28.1 ± 0.1 °C | 106 ± 5 % L65A control |  | 
3 | B3 | 30.2 ± 0.5 °C | 74 ± 16 % L65A control |  | 
4 | B4 | 31.1 ± 0.2 °C | 94 ± 1 % L65A control | marginal increase | 
5 | B5 | 25.3 ± 0.5 °C | 175 ± 61 % L65A control | Reduced stability | in-situ stability relative to L65A, in words (M1 mAChR [2]): enhanced stability in 2 out of 3 experiments
6 | B6 | 31.0 ± 0.4 °C | 136 ± 9 % L65A control | increased stability | in-situ stability relative to L65A, in words (M1 mAChR [2]): more stable
7 | B7 | 29.8 ± 1.0 °C | 125 ± 16 % L65A control |  | 
8 | B8 | 30.1 ± 0.5 °C | 105 ± 10 % L65A control |  | 
9 | B9 | 29.6 ± 0.5 °C | 100 ± 7 % L65A control |  | 
10 | B10 | 32.6 ± 0.4 °C | 115 % L65A control | more stable than L65A | % 3H-NMS retained BOG (M1 mAChR [2]; listed as L65V 1): 81%; % 3H-NMS retained BOG (M1 mAChR [2]; listed as L65V 2): 95%; % loss/wt (M1 mAChR [2]): 0.23; mean % retained (M1 mAChR [2]): 88%
